Values belong to the molecule of their own block, whether it stands above or below them.
How the values were obtained:
rabbit α-tropomyosin = biological target: T1, rabbit α-tropomyosin (Oryctolagus cuniculus, UniProt P58772); test: ELISA solid phase protein binding of immobilized cTnT to tropomyosin; conditions: for EC50: immobilized mouse cTnT, mean ± SD, read-out: concentration of tropomyosin for 50% maximum binding; for change in binding to tropomyosin on decrease of pH: pH from 7.0 to 6.2
T1 construct: Rabbit α-tropomyosin was purified from ventricular muscle as described previously (44); from tissue; host or cells: rabbit ventricular muscle
Experimental: (§1) Protein binding assays. Enzyme-linked immunosorbant assay (ELISA) solid phase protein binding experiments (21) were performed to investigate the interactions of the NH2-terminal truncated cTnT with TnI and tropomyosin. Purified intact and NH2-terminal truncated mouse cTnT or BSA control were dissolved at 5 μg/mL in Buffer A (0.1 M KCl, 3 mM MgCl2, 20 mM PIPES, pH 7.5) and coated onto 96-well microtiter plates by incubation at 4° C. overnight. After washes with Buffer T (Buffer A containing 0.05% polyoxyethylene 20 (TWEEN®20)) at pH 7.5 to remove the unbound protein, the plates were blocked with Buffer T at pH 7.0 or 6.2 containing 1% BSA. The immobilized cTnT was incubated with serial dilutions of bovine cardiac TnI or rabbit α-tropomyosin in Buffer T (at the blocking pH) containing 0.1% BSA at room temperature for 2 hours. After one wash with Buffer T of the blocking pH and two washes with Buffer T at pH 7.0, the bound TnI or tropomyosin was quantified via incubation at pH 7.0 and room temperature for 1 hour with the anti-TnI mAb TnI-1 (46) or an anti-tropomyosin mAb CH1 (47), respectively. The plates were then processed by a standard ELISA procedure, including pH 7.0 Buffer T washes, horse radish peroxidase-conjugated anti-mouse immunoglobulin second antibody (Sigma) incubation, and H2O2/2,2′-azinobis-(3-ethylbenzthiazolinesulfonic acid) substrate reaction (21). A405 nm of each assay well was recorded at a series of time points by an automated microtiter plate reader (BioRad Benchmark). The A405 nm values in the linear course of the color development were used to plot the protein binding affinity curves. All experiments were done in triplicate.

bovine cardiac TnI = biological target: T2, bovine cardiac TnI (Bos taurus, UniProt P08057); test: ELISA solid phase protein binding of immobilized cTnT to TnI; conditions: for EC50: immobilized mouse cTnT, mean ± SD, read-out: concentration of TnI required to reach 50% of maximum binding; for change in binding to TnI on decrease of pH: pH from 7.0 to 6.2
T2 construct: Bovine cardiac TnI was purified from ventricular muscle as described previously (19); from tissue; host or cells: bovine ventricular muscle
Experimental: as §1

[1] = biological target: T3, myofibril associated μ-calpain (Mus musculus, UniProt O35350); test: Calpain inhibition of cTnT-ND production in TRITON X-100 extracted ventricular muscle strips (Western blot densitometry); assay type: biochemical; conditions: 100 μM hydrogen peroxide
T3 construct: To test whether endogenous calpain in the cardiac muscle contributes to TnT NH2-terminal modification; from tissue
T3 sequence (O35350 1-713): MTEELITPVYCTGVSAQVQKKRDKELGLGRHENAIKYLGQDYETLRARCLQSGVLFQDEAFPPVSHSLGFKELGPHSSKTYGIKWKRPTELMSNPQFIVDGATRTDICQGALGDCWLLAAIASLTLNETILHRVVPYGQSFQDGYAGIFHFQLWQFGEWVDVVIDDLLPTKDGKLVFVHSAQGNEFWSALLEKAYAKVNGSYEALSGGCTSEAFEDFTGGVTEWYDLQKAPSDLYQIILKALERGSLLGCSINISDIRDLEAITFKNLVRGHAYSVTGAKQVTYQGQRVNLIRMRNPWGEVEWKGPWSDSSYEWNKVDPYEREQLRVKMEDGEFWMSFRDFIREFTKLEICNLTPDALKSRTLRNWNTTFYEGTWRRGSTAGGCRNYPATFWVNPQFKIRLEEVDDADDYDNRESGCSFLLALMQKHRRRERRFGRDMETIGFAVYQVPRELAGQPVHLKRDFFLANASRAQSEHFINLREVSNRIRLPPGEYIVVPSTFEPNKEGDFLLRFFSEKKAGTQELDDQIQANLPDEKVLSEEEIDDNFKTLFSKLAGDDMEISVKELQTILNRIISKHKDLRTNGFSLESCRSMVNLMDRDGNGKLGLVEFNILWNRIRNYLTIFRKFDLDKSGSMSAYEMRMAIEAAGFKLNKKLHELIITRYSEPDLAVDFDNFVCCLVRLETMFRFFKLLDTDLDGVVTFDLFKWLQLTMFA
T3 sequence (O88456 1-268 partner): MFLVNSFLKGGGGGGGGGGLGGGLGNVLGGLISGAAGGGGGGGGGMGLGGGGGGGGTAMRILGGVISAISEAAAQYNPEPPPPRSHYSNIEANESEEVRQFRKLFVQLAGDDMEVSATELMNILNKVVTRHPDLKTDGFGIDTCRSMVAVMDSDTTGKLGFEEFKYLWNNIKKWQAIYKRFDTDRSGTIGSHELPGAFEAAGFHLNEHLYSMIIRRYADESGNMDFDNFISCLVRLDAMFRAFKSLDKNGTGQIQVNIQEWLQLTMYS
Experimental: (§2) SDS-PAGE and Western blotting. Ventricular muscle tissues or myocytes were homogenized in Laemmli SDS-PAGE sample buffer containing 2% SDS, heated at 80° C. for 5 min, and clarified by centrifugation. Total protein extracts were resolved by 14% Laemmli gel with an acrylamide:bisacrylamide ratio of 180:1 (low cross linker) or by 15% Laemmli gel with an acrylamide:bisacrylamide ratio of 29:1 (high cross linker). The gels were stained with Coomassie Brilliant Blue R250 to reveal the resolved protein bands. Duplicate gels were electrically blotted to nitrocellulose membranes, as described previously (21). After blocking in Tris-buffered saline (TBS) containing 1% bovine serum albumin (BSA), the membrane was incubated with anti-TnT mAbs CT3, 2C8, or polyclonal antibody RATnT. The membranes were then washed with high stringency using TBS containing 0.5% TRITON® X-100 and 0.05% SDS, incubated with alkaline phosphatase-conjugated anti-mouse IgG or anti-rabbit IgG second antibodies (Sigma), washed again, and developed in 5-bromo-4-chloro-3-indolylphosphate/nitro blue tetrazolium substrate solution, as described previously (21).
TRITON® X-100 extraction of ventricular muscle strips. In an ice container, ventricular muscle was cut with a sharp razor blade into fine pieces approximately the size of isolated trabeculae. The muscle strips were washed in relaxing solution containing […], 2 mM MgCl2, 2 mM EGTA, 10 mM Tris, 0.5 mM DTT, 0.1 mM PMSF and 2 mM Na4P2O7. After centrifugation at 2,800×g at 4° C. for 15 min, the pellet was skinned in relaxing solution plus 0.5% (w/w) TRITON® X-100 at 4° C. with rotation for 10 min. After centrifugation at 14,000×g at 4° C. for 20 min, the pellet was suspended in relaxing solution without TRITON® X-100 and incubated at 37° C. with rotation. Samples were collected at a series of time points for SDS-PAGE and Western blotting to examine the modifications of cTnT and other myofibrillar proteins.
Calpain inhibition. To test whether endogenous calpain in the cardiac muscle contributes to TnT NH2-terminal modification, several different calpain inhibitors were applied to the TRITON® X-100 extraction procedure. […] TRITON® X-100 treatment of mouse ventricular muscle strips was carried out as above in the presence or absence of 100 μM hydrogen peroxide and the effect on cTnT modification was examined by Western blotting.
The effects of two cell membrane-permissible nonpeptide calpain inhibitors, PD 150606 and PD 151746 (Calbiochem), were also tested. […] PD 150606 and […] were separately added to the relaxing solution before TRITON® X-100 treatment and incubated with the minced ventricular muscle at 4° C. for 10 minutes to allow the inhibitor to penetrate cell membrane and bind to calpain. After TRITON® X-100 extraction, samples were collected for SDS-PAGE and Western blotting to examine the effect on cTnT modification.

[2] = tested on: cTnT in bovine cardiac myofibrils; test: μ-Calpain treatment of cardiac myofibrils (mAb CT3 Western blot densitometry); assay type: biochemical; conditions: 20 U/ml μ-calpain
Experimental: as §2
Mu-Calpain treatment of cTnT. […] The samples were analyzed by SDS-PAGE and Western blotting as described above. […]

Molecule: intact cTnT: intact mouse cardiac troponin T (TnT4) expressed in E. coli
EC50 (rabbit α-tropomyosin): 13.5 ± 1.38 nM
change in binding to tropomyosin on decrease of pH (rabbit α-tropomyosin): did not result in significant change
EC50 (bovine cardiac TnI): 15.3 ± 1.36 nM
change in binding to TnI on decrease of pH (bovine cardiac TnI): did not result in significant change

B1: μ-calpain: calcium activated cysteine protease (Calbiochem) used to treat cTnT, troponin complex and myofibrils (protein, UniProt P07384 2-714, looked up)
Calpain-1 catalytic subunit: SEEIITPVYCTGVSAQVQKQRARELGLGRHENAIKYLGQDYEQLRVRCLQSGTLFRDEAFPPVPQSLGYKDLGPNSSKTYGIKWKRPTELLSNPQFIVDGATRTDICQGALGDCWLLAAIASLTLNDTLLHRVVPHGQSFQNGYAGIFHFQLWQFGEWVDVVVDDLLPIKDGKLVFVHSAEGNEFWSALLEKAYAKVNGSYEALSGGSTSEGFEDFTGGVTEWYELRKAPSDLYQIILKALERGSLLGCSIDISSVLDMEAITFKKLVKGHAYSVTGAKQVNYRGQVVSLIRMRNPWGEVEWTGAWSDSSSEWNNVDPYERDQLRVKMEDGEFWMSFRDFMREFTRLEICNLTPDALKSRTIRKWNTTLYEGTWRRGSTAGGCRNYPATFWVNPQFKIRLDETDDPDDYGDRESGCSFVLALMQKHRRRERRFGRDMETIGFAVYEVPPELVGQPAVHLKRDFFLANASRARSEQFINLREVSTRFRLPPGEYVVVPSTFEPNKEGDFVLRFFSEKSAGTVELDDQIQANLPDEQVLSEEEIDENFKALFRQLAGEDMEISVKELRTILNRIISKHKDLRTKGFSLESCRSMVNLMDRDGNGKLGLVEFNILWNRIRNYLSIFRKFDLDKSGSMSAYEMRMAIESAGFKLNKKLYELIITRYSEPDLAVDFDNFVCCLVRLETMFRFFKTLDTDLDGVVTFDLFKWLQLTMFA
NH2-terminal truncated cTnT (cTnT ND) as share of total cTnT (truncated plus intact) ([2]; 0% at 0 U/ml): 98%
intact cTnT remaining ([2]; 100% at 0 U/ml): 1.5%

Results, then the molecule that gave them:

level of maximum binding to tropomyosin, compared with intact cTnT (rabbit α-tropomyosin; FIG. 12B insert): not significantly changed
EC50 (rabbit α-tropomyosin): 9.73 ± 0.185 nM
change in binding to tropomyosin on decrease of pH (rabbit α-tropomyosin): did not result in significant change
maximum binding to TnI, compared with intact cTnT (bovine cardiac TnI; FIG. 12A insert): No significant difference
EC50 (bovine cardiac TnI): 8.73 ± 1.15 nM
change in binding to TnI on decrease of pH (bovine cardiac TnI): did not result in significant change
Molecule: cTnT ND: NH2-terminal truncated mouse cardiac troponin T lacking amino acids 1-71, expressed in E. coli

cTnT-ND production reduced to ([1]; TRITON X-100 extracted exon 7-deleted transgenic mouse ventricular muscle strips): 65%
decrease in cTnT-ND72-291 ([1]; TRITON X-100 treated mouse ventricular muscle strips): approximately 35%
Molecule: OO [hydrogen peroxide]
